In patent US20260274936A1:

Biological target: human neonatal Fc-receptor (FcRn) (human) (UniProt P55899)
Experiment: FcRn affinity chromatography

Row | FcRn-affinity column retention time [min] | Substance
1 | 41.3 | molecule with IgG1 Fc-region L234A/L235A/P329G and Y436A (symmetric) (antibody)

Biological target: human neonatal Fc-receptor (FcRn) (human) (UniProt P55899)
Experiment: FcRn affinity chromatography, anti-HER2 antibody

Row | Substance | retention time [min]
2 | anti-HER2 antibody, K290H (symmetrically modified) | 46.2
3 | anti-HER2 antibody, L309H (symmetrically modified) | 45.5
4 | anti-HER2 antibody, E258H (symmetrically modified) | 45.6
5 | anti-HER2 antibody, D98E (symmetrically modified) | 46.2

Results, then the substance that gave them:

Row | retention time [min] | Substance
6 | 52 | anti-HER2 antibody, N434H (symmetrically modified)
7 | 45.2 | anti-HER2 antibody, K288E (symmetrically modified)
8 | 41.4 | anti-HER2 antibody, R255D (symmetrically modified)

Biological target: human neonatal Fc-receptor (FcRn) (human) (UniProt P55899)
Experiment: FcRn affinity chromatography, anti-VEGF/ANG-2 KiH antibody

Row | retention time on FcRn affinity column [min] | Substance
9 | 48.4 | bispecific anti-VEGF/ANG-2 antibody (knobs-into-holes), one chain with H310A (bispecific antibody)
10 | 46.7 | bispecific anti-VEGF/ANG-2 antibody (knobs-into-holes), one chain with H310A/H433A/Y436A (bispecific antibody)
11 | 48.8 | bispecific anti-VEGF/ANG-2 antibody (knobs-into-holes), one chain with H435A (bispecific antibody)
12 | 51.8 | bispecific anti-VEGF/ANG-2 antibody (knobs-into-holes), FcRn affecting mutation: none (bispecific antibody)
13 | 48.8 | bispecific anti-VEGF/ANG-2 antibody (knobs-into-holes), one chain with I253A (bispecific antibody)
14 | 56.2 | bispecific anti-VEGF/ANG-2 antibody (knobs-into-holes), one chain with M252Y/S254T/T256E (bispecific antibody)
15 | 46.3 | bispecific anti-VEGF/ANG-2 antibody (knobs-into-holes), one chain with L251D/L314D/L432D (bispecific antibody)

Biological target: human neonatal Fc-receptor (FcRn) (human) (UniProt P55899)
Experiment: FcRn affinity chromatography; the table in the text prints 51.8 min for 'none'

Row | RT [min] | Substance
16 | 52.8 | bispecific anti-VEGF/ANG-2 antibody (knobs-into-holes), FcRn affecting mutation: none (bispecific antibody)
